First the molecules themselves.
B1: peptide HD2 (from tick evasin EVA4) / CCL11 (biotinylated, synthetic) (parent complex)
chain 1: EEDDYTAYAPLTCYFT
chain 2: not shown
B2: peptide HD2 (from tick evasin EVA4) / CCL22 (biotinylated, synthetic) (parent complex)
chain 1: EEDDYTAYAPLTCYFT
chain 2: GPYGANMEDSVCCRDYVRYRLPLRVVKHFYWTSDSCPRPGVVLLTFRDKEICADPRVPWVKMILNKLSQ

One experiment covers variants of B1.
chain 1 A7F: the enrichment is -1.71 log2 (difference from the parental peptide). Still for that read-out and setting: in the case of chain 1 A7R it was 0.794 log2 (difference from the parental peptide). Same read-out and setting: the value for chain 1 A7P was 0.578 log2 (difference from the parental peptide). In the case of chain 1 A7E, the enrichment is 2.59 log2 (difference from the parental peptide). For the variant chain 1 A7M, the enrichment is 1.99 log2 (difference from the parental peptide). chain 1 E2T: the enrichment is -2.27 log2 (difference from the parental peptide). With chain 1 E2H, the enrichment was -2.49 log2 (difference from the parental peptide).

As to chain 1 E2W, the enrichment was -2.09 log2 (difference from the parental peptide). Turning to chain 1 E2V, the enrichment was -1.61 log2 (difference from the parental peptide). Consider chain 1 E2D, for which the enrichment is 1.39 log2 (difference from the parental peptide). Consider chain 1 E2A, for which the enrichment is -0.825 log2 (difference from the parental peptide). As for chain 1 F15K, the enrichment was -4.78 log2 (difference from the parental peptide). On the same count and under the same terms, in the case of chain 1 F15N it was -1.58 log2 (difference from the parental peptide); in that of chain 1 F15V, 0.59 log2 (difference from the parental peptide). Turning to chain 1 D3M, the enrichment was -2.72 log2 (difference from the parental peptide). For the variant chain 1 D3I, the enrichment is -3.65 log2 (difference from the parental peptide). With chain 1 T16C, the enrichment was -0.0325 log2 (difference from the parental peptide). Consider chain 1 T16K, for which the enrichment is -0.03 log2 (difference from the parental peptide). chain 1 T16Q: the enrichment is 1.62 log2 (difference from the parental peptide). Still for that read-out and setting: the value for chain 1 T16L was 0.412 log2 (difference from the parental peptide); that for chain 1 T16A was 1.44 log2 (difference from the parental peptide); that for chain 1 A9R was -1.6 log2 (difference from the parental peptide). Still for that read-out and setting: the value for chain 1 A9E was 0.893 log2 (difference from the parental peptide); that for chain 1 A9Y was -4.85 log2 (difference from the parental peptide); that for chain 1 A9V was -5.98 log2 (difference from the parental peptide). With chain 1 A9S, the enrichment is -1.28 log2 (difference from the parental peptide).

In the case of chain 1 D4G, the enrichment was -4.8 log2 (difference from the parental peptide). The same measure, in the same setting: the value for chain 1 D4K was -5.45 log2 (difference from the parental peptide); that for chain 1 D4W was -3.16 log2 (difference from the parental peptide). On to chain 1 D4S, for which the enrichment is -3.54 log2 (difference from the parental peptide).

Consider chain 1 D4Y, for which the enrichment is -1.9 log2 (difference from the parental peptide).

As to chain 1 D4T, the enrichment is -4.2 log2 (difference from the parental peptide). Take chain 1 P10Y: the enrichment was -5.97 log2 (difference from the parental peptide).

With chain 1 Y5N, the enrichment is -5.96 log2 (difference from the parental peptide).

In the case of chain 1 Y5H, the enrichment is -6.32 log2 (difference from the parental peptide). Turning to chain 1 Y5A, the enrichment is -6.65 log2 (difference from the parental peptide). Turning to chain 1 Y5F, the enrichment is 0.0717 log2 (difference from the parental peptide).

As for chain 1 Y5M, the enrichment is -1.54 log2 (difference from the parental peptide). chain 1 Y5G: the enrichment was -5.68 log2 (difference from the parental peptide).

With chain 1 E1T, the enrichment was -0.645 log2 (difference from the parental peptide). For chain 1 E1G, the enrichment is -0.291 log2 (difference from the parental peptide). As to chain 1 Y8A, the enrichment is -4.4 log2 (difference from the parental peptide). On to chain 1 Y8W, for which the enrichment is -1.91 log2 (difference from the parental peptide). In the case of chain 1 C13M, the enrichment was -6.39 log2 (difference from the parental peptide). Regarding chain 1 C13S, the enrichment is -5.22 log2 (difference from the parental peptide). Regarding chain 1 C13Y, the enrichment is -6.32 log2 (difference from the parental peptide). Turning to chain 1 C13Q, the enrichment was -8.37 log2 (difference from the parental peptide). For chain 1 L11S, the enrichment was -0.475 log2 (difference from the parental peptide).

Consider chain 1 L11N, for which the enrichment was -4.38 log2 (difference from the parental peptide). Regarding chain 1 T6M, the enrichment was -0.715 log2 (difference from the parental peptide). chain 1 T6N: the enrichment is 1.61 log2 (difference from the parental peptide). With chain 1 T6I, the enrichment was -5.35 log2 (difference from the parental peptide).

In the case of chain 1 Y14D, the enrichment is -4.78 log2 (difference from the parental peptide).

Regarding chain 1 Y14T, the enrichment was -4.02 log2 (difference from the parental peptide).

Turning to chain 1 Y14F, the enrichment is 0.149 log2 (difference from the parental peptide). As to chain 1 Y14R, the enrichment was -8.35 log2 (difference from the parental peptide).

Consider chain 1 Y14V, for which the enrichment was -3.71 log2 (difference from the parental peptide). The same measure, in the same setting: in the case of chain 1 T12P it was -3.61 log2 (difference from the parental peptide); in that of chain 1 T12K, -5.35 log2 (difference from the parental peptide).

In another experiment the parent is B2.
For the variant chain 1 E1N, the enrichment is -1.54 log2 (difference from the parental peptide).

For chain 1 E1L, the enrichment was -1.9 log2 (difference from the parental peptide). As for chain 1 E1P, the enrichment is -2.84 log2 (difference from the parental peptide). Same read-out and setting: in the case of chain 1 E1W it was -2.09 log2 (difference from the parental peptide); in that of chain 1 E1I, -1.58 log2 (difference from the parental peptide). Regarding chain 1 E1K, the enrichment is -4.48 log2 (difference from the parental peptide).

On to chain 1 E1R, for which the enrichment was -5.65 log2 (difference from the parental peptide). In the case of chain 1 F15C, the enrichment is -4.84 log2 (difference from the parental peptide). Same read-out and setting: the value for chain 1 F15V was 0.452 log2 (difference from the parental peptide). As to chain 1 F15E, the enrichment is -3.12 log2 (difference from the parental peptide). Turning to chain 1 F15S, the enrichment is -0.181 log2 (difference from the parental peptide). With chain 1 F15P, the enrichment was -1.52 log2 (difference from the parental peptide). As for chain 1 F15M, the enrichment was 0.54 log2 (difference from the parental peptide). As to chain 1 F15R, the enrichment is 0.817 log2 (difference from the parental peptide).

On to chain 1 A9N, for which the enrichment was -4.75 log2 (difference from the parental peptide). The same measure, in the same setting: in the case of chain 1 A9W it was -3.76 log2 (difference from the parental peptide).

Turning to chain 1 A9M, the enrichment is -5.79 log2 (difference from the parental peptide).

As for chain 1 A9G, the enrichment was -7.69 log2 (difference from the parental peptide). Turning to chain 1 A9S, the enrichment is -2.79 log2 (difference from the parental peptide). Same read-out and setting: in the case of chain 1 A9L it was -6.75 log2 (difference from the parental peptide); in that of chain 1 T12C, -1.01 log2 (difference from the parental peptide). For chain 1 T12D, the enrichment was -6.65 log2 (difference from the parental peptide). Consider chain 1 T12G, for which the enrichment was -10.3 log2 (difference from the parental peptide). chain 1 T12L: the enrichment was 0.0229 log2 (difference from the parental peptide). On to chain 1 T12E, for which the enrichment is -7.95 log2 (difference from the parental peptide). For chain 1 T12Q, the enrichment is 0.207 log2 (difference from the parental peptide). Consider chain 1 D3A, for which the enrichment was -3.86 log2 (difference from the parental peptide).

As for chain 1 D3I, the enrichment was -5.15 log2 (difference from the parental peptide). As for chain 1 D3G, the enrichment is -4.28 log2 (difference from the parental peptide). In the case of chain 1 D3K, the enrichment was -5.36 log2 (difference from the parental peptide). The same measure, in the same setting: in the case of chain 1 D3Y it was -3.98 log2 (difference from the parental peptide). chain 1 D3H: the enrichment is -5.38 log2 (difference from the parental peptide). In the case of chain 1 D3E, the enrichment was 1.1 log2 (difference from the parental peptide). In the case of chain 1 P10F, the enrichment was -9.41 log2 (difference from the parental peptide). Turning to chain 1 P10E, the enrichment is -6.9 log2 (difference from the parental peptide).

On to chain 1 P10L, for which the enrichment is -7.92 log2 (difference from the parental peptide). For the variant chain 1 Y8L, the enrichment was -7.77 log2 (difference from the parental peptide). Consider chain 1 Y8D, for which the enrichment was -7.54 log2 (difference from the parental peptide). Still for that read-out and setting: in the case of chain 1 Y8A it was -7.77 log2 (difference from the parental peptide). With chain 1 Y8F, the enrichment was -0.0331 log2 (difference from the parental peptide). As to chain 1 Y8W, the enrichment is -2.54 log2 (difference from the parental peptide). Same read-out and setting: in the case of chain 1 T16Y it was -0.842 log2 (difference from the parental peptide). On to chain 1 T16I, for which the enrichment is 0.113 log2 (difference from the parental peptide). For the variant chain 1 T16L, the enrichment is 0.694 log2 (difference from the parental peptide). For the variant chain 1 T16S, the enrichment is 1.36 log2 (difference from the parental peptide).

In the case of chain 1 T16K, the enrichment was 2.2 log2 (difference from the parental peptide).

Regarding chain 1 T16W, the enrichment is -0.731 log2 (difference from the parental peptide). Consider chain 1 T16H, for which the enrichment is 0.765 log2 (difference from the parental peptide). chain 1 T16E: the enrichment was 0.53 log2 (difference from the parental peptide).

chain 1 E2W: the enrichment was -1.93 log2 (difference from the parental peptide).

As for chain 1 E2S, the enrichment is -3.12 log2 (difference from the parental peptide). chain 1 E2Q: the enrichment is -3.9 log2 (difference from the parental peptide). Still for that read-out and setting: in the case of chain 1 E2V it was -2.63 log2 (difference from the parental peptide); in that of chain 1 E2M, -2.95 log2 (difference from the parental peptide). chain 1 E2N: the enrichment is -3.61 log2 (difference from the parental peptide).

For the variant chain 1 E2L, the enrichment is -2.82 log2 (difference from the parental peptide). The same measure, in the same setting: the value for chain 1 E2T was -3.84 log2 (difference from the parental peptide); that for chain 1 L11E was 0.55 log2 (difference from the parental peptide); that for chain 1 L11K was 0.195 log2 (difference from the parental peptide). As to chain 1 A7E, the enrichment was 1.56 log2 (difference from the parental peptide). On the same count and under the same terms, in the case of chain 1 A7I it was -3 log2 (difference from the parental peptide). In the case of chain 1 A7V, the enrichment is -3.51 log2 (difference from the parental peptide). Regarding chain 1 A7Q, the enrichment was 2.25 log2 (difference from the parental peptide). In the case of chain 1 A7T, the enrichment was -1.44 log2 (difference from the parental peptide). In the case of chain 1 A7Y, the enrichment is -1.54 log2 (difference from the parental peptide).

Turning to chain 1 A7M, the enrichment was 1.59 log2 (difference from the parental peptide). With chain 1 A7D, the enrichment is 1.26 log2 (difference from the parental peptide). Take chain 1 A7P: the enrichment was 1.84 log2 (difference from the parental peptide). On to chain 1 C13S, for which the enrichment was -3.73 log2 (difference from the parental peptide). Take chain 1 C13F: the enrichment is -6.63 log2 (difference from the parental peptide). With chain 1 C13A, the enrichment was -6.82 log2 (difference from the parental peptide). Turning to chain 1 C13M, the enrichment was -3.12 log2 (difference from the parental peptide). For chain 1 D4F, the enrichment was -7.18 log2 (difference from the parental peptide). For chain 1 D4Y, the enrichment was -4.71 log2 (difference from the parental peptide). chain 1 D4A: the enrichment is -8.08 log2 (difference from the parental peptide). Turning to chain 1 D4N, the enrichment is -4.06 log2 (difference from the parental peptide). chain 1 Y14H: the enrichment is 2.15 log2 (difference from the parental peptide).

As to chain 1 Y14D, the enrichment was -4.53 log2 (difference from the parental peptide). For the variant chain 1 Y14Q, the enrichment was -0.26 log2 (difference from the parental peptide). On to chain 1 Y14C, for which the enrichment is -2.09 log2 (difference from the parental peptide). Consider chain 1 Y5E, for which the enrichment is -3.48 log2 (difference from the parental peptide).

As to chain 1 Y5N, the enrichment was -6.71 log2 (difference from the parental peptide). Turning to chain 1 Y5C, the enrichment is -5.08 log2 (difference from the parental peptide). On the same count and under the same terms, the value for chain 1 Y5T was -6.08 log2 (difference from the parental peptide). As for chain 1 Y5H, the enrichment was -5 log2 (difference from the parental peptide). In the case of chain 1 Y5D, the enrichment was -5.05 log2 (difference from the parental peptide). On the same count and under the same terms, in the case of chain 1 T6D it was 3.79 log2 (difference from the parental peptide); in that of chain 1 T6E, 2.68 log2 (difference from the parental peptide); in that of chain 1 T6M, -1.14 log2 (difference from the parental peptide). On to chain 1 T6L, for which the enrichment is -2.3 log2 (difference from the parental peptide). Take chain 1 T6S: the enrichment is 3.56 log2 (difference from the parental peptide).

The values are drawn from publication PMC11969024 (2025).
